Measurements as given in the supplement of paper PMC6757056.
± gives the standard deviation of the averaged measurements.

B1: library; a variant is named by its letters at N, in order (parent)
chain: GCUGUCACCGGUGCUUGGUACGUUAUAUUCAGCCGGUCUGAUGAGUCUNNNNNNAGACGAAACAGC

Key:
(6R,S)-folinic acid [1] = variants of: B1; experiment: normalized RNA/DNA level without ligand (relative to sTRSVctl = 100) (log10 (% of sTRSVctl)); HEK293T overexpressing SLC46A1; higher = less ribozyme self-cleavage, higher mRNA level; settings: without (6R,S)-folinic acid; ligand present: no
In short: (§1)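 Ribozyme switch library plasmids with mCherry reporters (eGFP in certain ligand experiments) went into HEK293T cells at 4 µg per 6-well well. Where ligand was used, it was applied 1 h before transfection, and total RNA was extracted with EDTA 72 h later for reverse transcription, amplification, barcoding and sequencing. RNA level is the RNA-to-DNA read ratio normalized to a spiked-in non-cleaving sequence or to the leading sequences, then scaled and log-transformed. Scaling was ×100 with log10, the leading set comprised 25 sequences, and the cutoff was ≥100 DNA reads.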

(6R,S)-folinic acid [2] = variants of: B1; experiment: normalized RNA/DNA level with ligand (relative to sTRSVctl = 100) (log10 (% of sTRSVctl)); HEK293T overexpressing SLC46A1; ligand concentration (+) RNA-Seq: 6 mM; higher = less ribozyme self-cleavage, higher mRNA level; settings: with (6R,S)-folinic acid; ligand present: yes
In short: as §1

| Variant | normalized RNA/DNA level without ligand (log10) ((6R,S)-folinic acid [1]) | normalized RNA/DNA level with ligand (log10) ((6R,S)-folinic acid [2]) |
| --- | --- | --- |
| AGGAGU | 1.934 ± 0.0037 | 2.033 ± 0.014 |
| AGGCCU | 2.07 ± 0.031 | 2.06 ± 0.0088 |
| AGGCCC | 2.068 ± 0.0036 | 2.03 ± 0.056 |
| AGGCCG | 2.039 ± 0.017 | 2.02 ± 0.039 |
| AGGCCA | 2.0454 ± 0.0016 | 2.04 ± 0.04 |
| UGUAUA | 1.953 ± 0.0013 | 2.01 ± 0.022 |
| AGGUAC | 1.982 ± 0.0027 | 1.995 ± 0.0077 |
| AGGUAU | 2.009 ± 0.0096 | 2.04 ± 0.052 |
| AGGUAG | 1.912 ± 0.0057 | 2 ± 0.077 |
| AGGUAA | 1.95 ± 0.024 | 1.98 ± 0.02 |
| UGGUCA | 1.9757 ± 0.0013 | 2.04 ± 0.062 |
| UGGUCG | 1.844 ± 0.015 | 1.99 ± 0.021 |
| UGGUCU | 1.994 ± 0.015 | 2.0325 ± 0.0019 |
| UGGUCC | 2.039 ± 0.0085 | 2.035 ± 0.016 |
| GGGAGA | 2.021 ± 0.0092 | 2.05 ± 0.043 |
| CGGAGC | 1.994 ± 0.0049 | 2 ± 0.032 |
| CGGAGA | 1.997 ± 0.017 | 2.03 ± 0.042 |
| CGGAGU | 2.019 ± 0.017 | 2.025 ± 0.012 |
| CGGAGG | 1.83 ± 0.02 | 1.994 ± 0.01 |
| UGGGUC | 2.11 ± 0.022 | 2.06 ± 0.034 |
| UGGGUA | 1.892 ± 0.0053 | 1.98 ± 0.053 |
| UGGGUU | 1.9881 ± 0.0019 | 2.018 ± 0.016 |
| CGGAUC | 2.085 ± 0.011 | 2.034 ± 0.003 |
| CGGAUU | 2.031 ± 0.015 | 2.02 ± 0.045 |

| Variant | normalized RNA/DNA level without ligand (log10) ((6R,S)-folinic acid [1]) | normalized RNA/DNA level with ligand (log10) ((6R,S)-folinic acid [2]) |
| --- | --- | --- |
| GGGUCA | 2.078 ± 0.0065 | 2.09 ± 0.053 |
| GGGUCU | 2.064 ± 0.0032 | 2.06 ± 0.018 |
| GGGUCC | 2.05 ± 0.022 | 2.06 ± 0.04 |
| GGGCCA | 2.126 ± 0.019 | 2.09 ± 0.041 |
| GGGCCC | 2.102 ± 0.0043 | 2.08 ± 0.039 |
| GGGCCU | 2.098 ± 0.0088 | 2.08 ± 0.036 |
| GGGCCG | 2.091 ± 0.018 | 2.08 ± 0.047 |
| GGUAUU | 2.002 ± 0.014 | 1.98 ± 0.032 |
| GGUAUC | 2.011 ± 0.008 | 2.0104 ± 0.001 |
| UGGGGU | 1.94 ± 0.026 | 2.0251 ± 0.00068 |
| UGGGGC | 2.024 ± 0.01 | 2.02 ± 0.023 |
| UGGGGG | 1.8 ± 0.017 | 2.008 ± 0.018 |
| UGGGGA | 1.836 ± 0.0073 | 1.99 ± 0.036 |
| AGGGGA | 2.001 ± 0.0065 | 2.04 ± 0.058 |
| AGGGGC | 2.047 ± 0.0056 | 2.04 ± 0.053 |
| AGGGGG | 1.9815 ± 0.00032 | 2.05 ± 0.064 |
| AGGGGU | 1.98 ± 0.025 | 2.02 ± 0.039 |
| AGGUUC | 2.02 ± 0.024 | 2.03 ± 0.045 |
| AGGUUG | 2.005 ± 0.013 | 2.04 ± 0.053 |
| UGUAGA | 1.84 ± 0.021 | 2.002 ± 0.017 |
| UGUAGU | 1.903 ± 0.015 | 2.06 ± 0.059 |
| UGUACG | 1.772 ± 0.0054 | 1.98 ± 0.038 |
| UGUACA | 1.958 ± 0.018 | 2 ± 0.051 |
| UGUACC | 2.019 ± 0.0028 | 2.03 ± 0.057 |

| Variant | normalized RNA/DNA level without ligand (log10) ((6R,S)-folinic acid [1]) | normalized RNA/DNA level with ligand (log10) ((6R,S)-folinic acid [2]) |
| --- | --- | --- |
| UGGAGC | 1.996 ± 0.0034 | 2.06 ± 0.036 |
| GGGGGG | 2.045 ± 0.019 | 2.04 ± 0.061 |
| GGGGGU | 2.037 ± 0.0098 | 2.05 ± 0.052 |
| GGGGGC | 1.94 ± 0.038 | 2.03 ± 0.022 |
| GGGGGA | 2.057 ± 0.02 | 2.05 ± 0.043 |
| UGUCAG | 1.771 ± 0.011 | 2 ± 0.026 |
| UGUCAC | 2.03 ± 0.015 | 2.01 ± 0.021 |
| UGUCAA | 1.968 ± 0.018 | 2.002 ± 0.014 |
| CGGAAG | 1.94 ± 0.021 | 1.98 ± 0.028 |
| UGGAUC | 2.039 ± 0.01 | 2.01 ± 0.032 |
| UGGAUA | 1.93 ± 0.022 | 1.99 ± 0.031 |
| UGGAAU | 1.869 ± 0.0092 | 2 ± 0.024 |
| UGGAAC | 1.921 ± 0.0075 | 2 ± 0.035 |
| UGGUGC | 2.02 ± 0.03 | 2.02 ± 0.044 |
| AGGCAG | 1.965 ± 0.0036 | 1.99 ± 0.053 |
| AGGAUU | 2.024 ± 0.017 | 2.05 ± 0.028 |
| AGGAUC | 2.059 ± 0.012 | 2.014 ± 0.013 |
| AGGAUG | 1.92 ± 0.031 | 2.037 ± 0.019 |
| GGGAAC | 1.997 ± 0.015 | 2.02 ± 0.032 |
| GGGAAU | 2.008 ± 0.0024 | 2.019 ± 0.02 |
| CGUAUC | 2.09 ± 0.0065 | 2.07 ± 0.023 |
| CGUAUG | 2.016 ± 0.012 | 2.01 ± 0.016 |
| AGGCUU | 2.03 ± 0.027 | 2.04 ± 0.041 |
| AGGCUG | 2.0598 ± 0.0012 | 2.04 ± 0.0063 |

| Variant | normalized RNA/DNA level without ligand (log10) ((6R,S)-folinic acid [1]) | normalized RNA/DNA level with ligand (log10) ((6R,S)-folinic acid [2]) |
| --- | --- | --- |
| CGGGCU | 2.09 ± 0.021 | 2.06 ± 0.03 |
| CGGGCC | 2.072 ± 0.0092 | 2.035 ± 0.019 |
| CGGGCA | 2.059 ± 0.0067 | 2.04 ± 0.0044 |
| CGGGCG | 1.993 ± 0.005 | 2.04 ± 0.043 |
| GGGGUC | 2.023 ± 0.0058 | 2.04 ± 0.048 |
| GGGGUU | 2.014 ± 0.0056 | 2.02 ± 0.034 |
| GGGGUG | 1.997 ± 0.011 | 2.061 ± 0.019 |
| GGGGUA | 1.988 ± 0.0044 | 1.99 ± 0.028 |
| GGGGAC | 1.995 ± 0.013 | 2.029 ± 0.012 |
| GGGGAU | 2.002 ± 0.0074 | 2.03 ± 0.05 |
| GGGGAG | 1.9915 ± 0.00084 | 2.04 ± 0.043 |
| UGUAAC | 1.95 ± 0.034 | 1.99 ± 0.038 |
| UGGACU | 2.006 ± 0.0056 | 2.01 ± 0.023 |
| AGGUGC | 2.0042 ± 0.0006 | 2.01 ± 0.044 |
| GGGCAA | 2.046 ± 0.013 | 2.05 ± 0.027 |
| GGGCAG | 2.03 ± 0.0034 | 2.05 ± 0.057 |
| GGGCAC | 2.003 ± 0.0062 | 2.02 ± 0.041 |
| CGUCAA | 1.98 ± 0.022 | 1.974 ± 0.018 |
| CGUCAU | 2.01 ± 0.047 | 2 ± 0.021 |
| CGUCAC | 2.032 ± 0.0083 | 1.99 ± 0.049 |
| CGUCAG | 2.001 ± 0.013 | 2.057 ± 0.013 |
| UGGGCA | 1.962 ± 0.0051 | 2.01 ± 0.032 |
| UGGGCU | 2.06 ± 0.024 | 2.04 ± 0.025 |
| UGGCUA | 2.03 ± 0.013 | 2.05 ± 0.028 |

| Variant | normalized RNA/DNA level without ligand (log10) ((6R,S)-folinic acid [1]) | normalized RNA/DNA level with ligand (log10) ((6R,S)-folinic acid [2]) |
| --- | --- | --- |
| UGGCUC | 2.07 ± 0.024 | 2.04 ± 0.023 |
| UGGCUU | 2.021 ± 0.00062 | 2.043 ± 0.0081 |
| UGGCUG | 2.066 ± 0.0012 | 2.09 ± 0.023 |
| AGUAUU | 2 ± 0.011 | 2.032 ± 0.018 |
| AGUAUC | 2.059 ± 0.0016 | 2.03 ± 0.0073 |
| AGUAUA | 1.9846 ± 0.0011 | 2.02 ± 0.0084 |
| AGUCAG | 1.975 ± 0.016 | 2.02 ± 0.042 |
| AGUCAC | 2.02 ± 0.024 | 2.02 ± 0.026 |
| AGUAGC | 1.986 ± 8.8e-05 | 2 ± 0.039 |
| AGUAGG | 1.897 ± 0.0057 | 2.02 ± 0.021 |
| AGUAGU | 1.943 ± 0.0095 | 2.012 ± 0.019 |
| AGUAGA | 1.943 ± 0.0031 | 2.018 ± 0.0096 |
| AGGCGC | 2.057 ± 0.015 | 2.03 ± 0.026 |
| AGGCGA | 2.0336 ± 0.00079 | 2.06 ± 0.023 |
| AGGCGG | 2.0398 ± 0.0017 | 2.044 ± 0.01 |
| AGGCGU | 2.02 ± 0.025 | 2.048 ± 0.0022 |
| AGGGUA | 1.968 ± 0.019 | 2.02 ± 0.0085 |
| AGGGUU | 2.021 ± 0.0045 | 2.01 ± 0.035 |
| AGGGUC | 2.051 ± 0.0057 | 2.03 ± 0.063 |
| AGGGUG | 1.952 ± 0.0024 | 2.04 ± 0.028 |
